Assay results taken from the supplement of paper PMC9112550, “Optimization of the antimicrobial peptide Bac7 by deep mutational scanning” (BMC Biology, 2022).

test system: Escherichia coli TOP10; assay: shrunken log2 fold change of peptide-encoding DNA abundance (4.5 h post-induction vs induction); higher = less antimicrobial activity (less host growth inhibition); conditions: time post-induction: 4.5 h; library: site-saturation at positions 5, 18, 19, 20
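Note: peptides expressed intracellularly from a pBAD plasmid library in pooled LB shake-flask culture, induced with 0.3% L-arabinose, DNA abundance read by NGS, three biological replicates, DESeq2 with apeglm shrinkage.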

Sequence	shrunken log2 fold change
RRIRGRPPRLPRPRPRPAYGPRP	-0.0354
RRIRGRPPRLPRPRPRPAYTPRP	-0.166
RRIRGRPPRLPRPRPRPCAHPRP	0.251
RRIRGRPPRLPRPRPRPCALPRP	0.594
RRIRGRPPRLPRPRPRPCCAPRP	1.55
RRIRGRPPRLPRPRPRPCCNPRP	-0.265
RRIRGRPPRLPRPRPRPCFWPRP	0.67
RRIRGRPPRLPRPRPRPCGRPRP	0.799
RRIRGRPPRLPRPRPRPCHCPRP	-0.017
RRIRGRPPRLPRPRPRPCHMPRP	-0.00127
RRIRGRPPRLPRPRPRPCHTPRP	-0.0963
RRIRGRPPRLPRPRPRPCIAPRP	0.797
RRIRGRPPRLPRPRPRPCNKPRP	-0.442
RRIRGRPPRLPRPRPRPCPLPRP	-0.0214
RRIRGRPPRLPRPRPRPCTRPRP	0.0901
RRIRGRPPRLPRPRPRPCTSPRP	0.188
RRIRGRPPRLPRPRPRPCTWPRP	0.228
RRIRGRPPRLPRPRPRPCVKPRP	0.063
RRIRGRPPRLPRPRPRPCVTPRP	1.34
RRIRGRPPRLPRPRPRPCVYPRP	0.486
RRIRGRPPRLPRPRPRPCYTPRP	0.498
RRIRGRPPRLPRPRPRPDAGPRP	0.601
RRIRGRPPRLPRPRPRPDCCPRP	1.34
RRIRGRPPRLPRPRPRPDCGPRP	0.879
RRIRGRPPRLPRPRPRPDECPRP	-0.00184

Sequence	shrunken log2 fold change
RRIRGRPPRLPRPRPRPDFEPRP	0.988
RRIRGRPPRLPRPRPRPDFPPRP	0.414
RRIRGRPPRLPRPRPRPDFVPRP	0.0455
RRIRGRPPRLPRPRPRPDHNPRP	0.0326
RRIRGRPPRLPRPRPRPDHRPRP	-0.178
RRIRGRPPRLPRPRPRPDKGPRP	0.00725
RRIRGRPPRLPRPRPRPDLQPRP	1.37
RRIRGRPPRLPRPRPRPDMLPRP	0.526
RRIRGRPPRLPRPRPRPDMWPRP	0.132
RRIRGRPPRLPRPRPRPDNGPRP	-0.0263
RRIRGRPPRLPRPRPRPDNYPRP	0.0266
RRIRGRPPRLPRPRPRPDPRPRP	0.716
RRIRGRPPRLPRPRPRPDQFPRP	0.704
RRIRGRPPRLPRPRPRPDQLPRP	0.719
RRIRGRPPRLPRPRPRPDRCPRP	0.286
RRIRGRPPRLPRPRPRPDRQPRP	-0.11
RRIRGRPPRLPRPRPRPDSMPRP	0.245
RRIRGRPPRLPRPRPRPDVGPRP	0.434
RRIRGRPPRLPRPRPRPDVWPRP	1.36
RRIRGRPPRLPRPRPRPDWNPRP	0.361
RRIRGRPPRLPRPRPRPEDNPRP	0.892
RRIRGRPPRLPRPRPRPEEVPRP	1.53
RRIRGRPPRLPRPRPRPEEYPRP	0.0595
RRIRGRPPRLPRPRPRPEFQPRP	0.226
RRIRGRPPRLPRPRPRPEFVPRP	1.15

Sequence	shrunken log2 fold change
RRIRGRPPRLPRPRPRPEGGPRP	1.17
RRIRGRPPRLPRPRPRPEHQPRP	0.529
RRIRGRPPRLPRPRPRPEHRPRP	0.102
RRIRGRPPRLPRPRPRPEICPRP	1.73
RRIRGRPPRLPRPRPRPEIHPRP	1.13
RRIRGRPPRLPRPRPRPEIKPRP	1.24
RRIRGRPPRLPRPRPRPEKKPRP	0.102
RRIRGRPPRLPRPRPRPELFPRP	1.63
RRIRGRPPRLPRPRPRPELYPRP	1.14
RRIRGRPPRLPRPRPRPEMKPRP	0.73
RRIRGRPPRLPRPRPRPEMLPRP	1.71
RRIRGRPPRLPRPRPRPEMMPRP	1.3
RRIRGRPPRLPRPRPRPEMRPRP	2.35
RRIRGRPPRLPRPRPRPENDPRP	1.74
RRIRGRPPRLPRPRPRPENGPRP	0.223
RRIRGRPPRLPRPRPRPEQGPRP	0.374
RRIRGRPPRLPRPRPRPERAPRP	1.4
RRIRGRPPRLPRPRPRPERHPRP	0.834
RRIRGRPPRLPRPRPRPERIPRP	-0.0324
RRIRGRPPRLPRPRPRPESIPRP	0.483
RRIRGRPPRLPRPRPRPESMPRP	1.19
RRIRGRPPRLPRPRPRPETKPRP	0.374
RRIRGRPPRLPRPRPRPEVMPRP	1.41
RRIRGRPPRLPRPRPRPEWGPRP	0.544
RRIRGRPPRLPRPRPRPEWPPRP	1.13

Sequence	shrunken log2 fold change
RRIRGRPPRLPRPRPRPFCSPRP	0.143
RRIRGRPPRLPRPRPRPFCYPRP	0.362
RRIRGRPPRLPRPRPRPFECPRP	0.0132
RRIRGRPPRLPRPRPRPFEGPRP	0.0595
RRIRGRPPRLPRPRPRPFEMPRP	0.396
RRIRGRPPRLPRPRPRPFENPRP	0.0511
RRIRGRPPRLPRPRPRPFFPPRP	0.154
RRIRGRPPRLPRPRPRPFINPRP	-0.165
RRIRGRPPRLPRPRPRPFKKPRP	0.0278
RRIRGRPPRLPRPRPRPFLHPRP	0.0811
RRIRGRPPRLPRPRPRPFLWPRP	0.996
RRIRGRPPRLPRPRPRPFNKPRP	-0.158
RRIRGRPPRLPRPRPRPFRDPRP	0.0814
RRIRGRPPRLPRPRPRPFRMPRP	0.00538
RRIRGRPPRLPRPRPRPFSTPRP	-0.0796
RRIRGRPPRLPRPRPRPFTNPRP	0.0545
RRIRGRPPRLPRPRPRPFTQPRP	-0.0854
RRIRGRPPRLPRPRPRPFVHPRP	0.111
RRIRGRPPRLPRPRPRPFYQPRP	0.0158
RRIRGRPPRLPRPRPRPFYWPRP	0.161
RRIRGRPPRLPRPRPRPGAFPRP	0.773
RRIRGRPPRLPRPRPRPGANPRP	0.874
RRIRGRPPRLPRPRPRPGCAPRP	1.33
RRIRGRPPRLPRPRPRPGCDPRP	1.26
RRIRGRPPRLPRPRPRPGCRPRP	1.16

Sequence	shrunken log2 fold change
RRIRGRPPRLPRPRPRPGDIPRP	0.143
RRIRGRPPRLPRPRPRPGDMPRP	0.511
RRIRGRPPRLPRPRPRPGDQPRP	0.777
RRIRGRPPRLPRPRPRPGEEPRP	0.965
RRIRGRPPRLPRPRPRPGENPRP	-0.0369
RRIRGRPPRLPRPRPRPGEVPRP	1.2
RRIRGRPPRLPRPRPRPGGPPRP	0.968
RRIRGRPPRLPRPRPRPGHKPRP	0.173
RRIRGRPPRLPRPRPRPGHPPRP	0.444
RRIRGRPPRLPRPRPRPGIAPRP	0.864
RRIRGRPPRLPRPRPRPGLCPRP	0.957
RRIRGRPPRLPRPRPRPGLFPRP	1.01
RRIRGRPPRLPRPRPRPGMDPRP	1.06
RRIRGRPPRLPRPRPRPGMQPRP	1.15
RRIRGRPPRLPRPRPRPGMRPRP	1.68
RRIRGRPPRLPRPRPRPGNVPRP	0.22
RRIRGRPPRLPRPRPRPGPFPRP	0.218
RRIRGRPPRLPRPRPRPGPHPRP	0.57
RRIRGRPPRLPRPRPRPGPKPRP	0.808
RRIRGRPPRLPRPRPRPGPMPRP	0.966
RRIRGRPPRLPRPRPRPGPPPRP	0.97
RRIRGRPPRLPRPRPRPGPRPRP	1.1
RRIRGRPPRLPRPRPRPGPWPRP	0.484
RRIRGRPPRLPRPRPRPGPYPRP	0.324
RRIRGRPPRLPRPRPRPGQSPRP	-0.00151

Sequence	shrunken log2 fold change
RRIRGRPPRLPRPRPRPGRMPRP	0.727
RRIRGRPPRLPRPRPRPGSCPRP	1.03
RRIRGRPPRLPRPRPRPGSWPRP	0.938
RRIRGRPPRLPRPRPRPGTLPRP	0.351
RRIRGRPPRLPRPRPRPGTWPRP	0.255
RRIRGRPPRLPRPRPRPGVIPRP	0.375
RRIRGRPPRLPRPRPRPGWWPRP	0.113
RRIRGRPPRLPRPRPRPGYLPRP	0.0499
RRIRGRPPRLPRPRPRPGYMPRP	-0.0736
RRIRGRPPRLPRPRPRPHAAPRP	1.47
RRIRGRPPRLPRPRPRPHANPRP	0.361
RRIRGRPPRLPRPRPRPHAVPRP	0.657
RRIRGRPPRLPRPRPRPHAWPRP	0.595
RRIRGRPPRLPRPRPRPHCAPRP	0.606
RRIRGRPPRLPRPRPRPHCLPRP	0.196
RRIRGRPPRLPRPRPRPHDHPRP	-0.027
RRIRGRPPRLPRPRPRPHECPRP	0.504
RRIRGRPPRLPRPRPRPHESPRP	0.784
RRIRGRPPRLPRPRPRPHGEPRP	0.164
RRIRGRPPRLPRPRPRPHHCPRP	-0.118
RRIRGRPPRLPRPRPRPHHMPRP	-0.219
RRIRGRPPRLPRPRPRPHKTPRP	-0.0617
RRIRGRPPRLPRPRPRPHLTPRP	0.357
RRIRGRPPRLPRPRPRPHMTPRP	1.45
RRIRGRPPRLPRPRPRPHPFPRP	-0.0384
